Test results taken from USRE50313E1, “Musculoskeletal stem cell and medium for inducing differentiation of musculoskeletal stem cell” (CELLATOZ THERAPEUTICS, INC., priority 2017, dated 2025).

System: hMSSCs
Experiment: Differentiation tendency of MSSC medium vs. CM medium
Format: cell-based, human
Conditions: as compared when the CM medium was used
Procedure: The differentiation capacity of a medium (hereinafter, “CM medium”) obtained by replacing the human noggin (Life Technologies), i.e., the constitutional ingredient 1) of the seven constitutional ingredients of the MSSC medium of Example 2, with a conditioned medium (a culture supernatant obtained after culturing CF1 cells with a medium obtained by replacing DMEM/F12 in a complete medium with knockout DMEM (supplemented with 20% knockout serum replacement (Invitrogen, USA), 1 mM glutamine, 1% nonessential amino acids (Invitrogen, USA), 0.1 mM β-mercaptoethanol, 0.1% penicillin-streptomycin and 5 mg/mL bovine serum albumin)) (the remaining constitutional ingredients 2)-7) are identical) was compared with that of the MSSC medium.
Noggin is generally used to maintain the characteristics of hESCs during culturing (Chaturvedi G, Simone P D, Ain R, Soares M J, Wolfe M W. Noggin maintains pluripotency of human embryonic stem cells grown on Matrigel. Cell Prolif. 2009 August; 42(4): 425-33).

B1: noggin: human noggin, constitutional ingredient 1) of the MSSC medium, 250 ng/mL (protein, UniProt Q13253 28-232, looked up)
Noggin: QHYLHIRPAPSDNLPLVDLIEHPDPIFDPKEKDLNETLLRSLLGGHYDPGFMATSPPEDRPGGGGGAAGGAEDLAELDQLLRQRPSGAMPSEIKGLEFSEGLAQGKKQRLSKKLRRKLQMWLWSQTFCPVLYAWNDLGSRFWPRYVKVGSCFSKRSCSVPEGMVCKPSKSVHLTVLRWRCQRRGGQRCGWIPIQYPIISECKCSC
increase of tendency for osteogenic differentiation: ≥ 10 times
